# Measurements taken from patent publication US20240207432A1 (BIOSION, published 2024).
# T1: human TROP2-his protein (human, UniProt P09758 27-274)
# T1 construct: Biotin-labelled in the ELISAs, unlabelled analyte in Biacore; also called biotin-labeled human TROP2-his protein; biotin human Trop2-his
# T1 sequence: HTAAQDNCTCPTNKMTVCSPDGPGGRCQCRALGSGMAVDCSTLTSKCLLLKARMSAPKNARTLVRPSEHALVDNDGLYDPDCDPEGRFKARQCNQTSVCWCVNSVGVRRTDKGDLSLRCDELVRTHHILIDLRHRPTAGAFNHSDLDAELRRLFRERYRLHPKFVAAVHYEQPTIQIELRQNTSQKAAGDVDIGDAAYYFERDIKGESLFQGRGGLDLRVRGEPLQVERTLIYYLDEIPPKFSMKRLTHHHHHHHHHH
# T2: cynomolgus TROP2-his protein (cynomolgus monkey, UniProt P09758 27-272 (human entry), limits assumed)
# T2 construct: no cleavage site is stated; also called Cynomolgus monkey TROP2-his protein; monkey TROP2
# T2 chain: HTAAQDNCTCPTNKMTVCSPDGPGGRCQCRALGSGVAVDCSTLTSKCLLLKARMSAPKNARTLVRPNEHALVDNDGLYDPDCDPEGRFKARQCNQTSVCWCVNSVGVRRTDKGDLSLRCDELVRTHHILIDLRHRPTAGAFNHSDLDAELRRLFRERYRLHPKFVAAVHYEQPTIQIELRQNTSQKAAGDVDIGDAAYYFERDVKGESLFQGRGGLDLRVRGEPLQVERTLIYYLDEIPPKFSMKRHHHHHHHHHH
# Experiments:
# [1] = target: T1, human TROP2-his protein; experiment: competitive ELISA: BM1 coated, antibody premixed with biotin human TROP2-his; blocked: binding of TROP2-his to coated BM1 (self-competition), OD falls from about 1.9 to about 0.05
# [2] = target: T2, cynomolgus TROP2-his protein; experiment: indirect ELISA, cynomolgus TROP2-his coated, OD(450-630)
# Method: The anti-TROP2 antibodies of the disclosure were tested for their cross-reaction with cynomolgus TROP2 proteins. Briefly, 96-well micro plates were coated with 100 μl 2 μg/ml cynomolgus TROP2-his proteins (prepared in-house with SEQ ID NO: 70) in carbonate/bicarbonate buffer (pH 9.6) overnight at 4° C. ELISA plates were washed once with wash buffer (PBS+0.05% v/v Tween-20, PBST) and then blocked with 200 μl/well blocking buffer (5% w/v non-fatty milk in PBST) for 2 hours at 37° C. […] After a final wash, plates were incubated with 100 μl/well TMB (Innoreagents) at room temperature. The reaction was stopped 3-10 minutes later at room temperature with 50 μl/well 1M H₂SO₄, and the absorbance of each well was read on a microplate reader using dual wavelength mode with 450 nm for TMB and 630 nm as the reference wavelength. The OD (450-630) values were plotted against antibody concentration. Data was analyzed using Graphpad Prism software and EC₅₀ values were reported.
# [3] = target: T1, human TROP2-his protein; experiment: competitive ELISA: BM1 coated at 1 ug/mL, antibody premixed with biotin human TROP2-his; blocked: binding of TROP2-his to coated BM1; partial only: OD drops from about 1.45 to a plateau of about 0.8
# Method: (§1) The mouse anti-TROP2 antibodies were tested for epitope binding in a competitive ELISA assay. […] ELISA plates were washed once with wash buffer (PBS+0.05% v/v Tween-20, PBST) and then blocked with 200 μl blocking buffer (5% w/v non-fatty milk in PBST) for 2 hours at 37° C. While blocking, the anti-TROP2 antibodies or controls were diluted with biotin labeled human TROP2-his protein (SEQ ID NO: 67, 34 ng/mL in 2.5% wA non-fatty milk in PBST), starting at 80 nM with a 5-fold serial dilution, and incubated at room temperature for 40 minutes. After plate washing for 4 times, the antibody/TROP2-his protein mixtures were added to the antibody coated plates, 100 μl per well. After incubation at 37° C. for 40 minutes, plates were washed 4 times again using wash buffer. Then the plates were added and incubated with 100 μl Peroxidase Streptavidin (1:10000 dilution in PBST buffer. Jackson Immunoresearch, Cat #016-030-084) for 40 minutes at 37° C. Plates were washed again using wash buffer. Finally, TMB was added and the reaction was stopped using 1M H₂SO₄. The absorbance of each well was read on a microplate reader using dual wavelength mode with 450 nm for TMB and 630 nm as the reference wavelength, and the OD (450-630) values were plotted against antibody concentration. Data was analyzed using Graphpad Prism software and IC₅₀ values were reported.
# [4] = target: T1, human TROP2-his protein; experiment: competitive ELISA: mouse A1E11A12D1 coated at 2 ug/mL, antibody premixed with biotin human TROP2-his; blocked: binding of TROP2-his to coated A1E11A12D1
# Method: as §1
binder,measurement,setting,value
"benchmark (in house prepared sacituzumab) (antibody, human IgG1, kappa, V domains shown, also called BM; BM1) VH: SVQLQQSGSELKKPGASVKVSCKASGYTFTNYGMNWVKQAPGQGLKWMGWINTYTGEPTYTDDFKGRFAFSLDTSVSTAYLQISSLKADDTAVYFCARGGFGSSYWYFDVWGQGSLVTVSS VL: DIQLTQSPSSLSASVGDRVSITCKASQDVSIAVAWYQQKPGKAPKLLIYSASYRYTGVPDRFSGSGSGTDFTLTISSLQPEDFAVYYCQQHYITPLTFGAGTKVEIKR",IC50,[1],0.88 nM
same,EC50,[2],0.138 nM
"mouse antibody C1B3B12D2 (antibody, V domains shown, Mouse monoclonal IgG purified from hybridoma supernatant) VH: QVQLQQSGPELVRPGTSVKMSCKAAGYTFTKFWIGWVKQRPGHGLEWIGNIYPGGAYINYNENFKGKATLTADTFSSTAYMQLNSLTSADSAIYYCAREGSSGYWGQGTTLTVSS VL: DIVMTQSPSSLTVTAGEKVTLSCKCSQSLLNSGTQENYLTWYQQKPGQPPKMLIYWASIREPGVPDRFTGSGSGTDFTLTINNVQAEDLAVYYCQHDYSYPFTFGSGTKLEIK",IC50,[3],~0.6 nM
"mouse antibody A1E4F7D4 (antibody, V domains shown, Mouse monoclonal IgG purified from hybridoma supernatant; also called Mouse A1E4F7D4) VH: QVQLQQSGAELAKPGTSVKMSCEASGYSFTTHWIHWMKQRPGQGLEWIGTIFPSNAYAVYNQKFRDRAIMTADRSSTTAYIQLTGLTSEDSAVYYCARASYFDYWGQGTTLTVSS VL: DILLTQSPATLSVSPGERVTFSCRASQNIGTSIHWFQQRTTGSPRLLIKYASESISGIPSRFSGSGSGTDFTLHINSVESEDIAHYYCQHSHSWPFTFGSGTKLEIQ",IC50,[4],0.584 nM
